Results published in US6730503B1 (Roche Vitamins Inc., priority 1996, dated 2004).

Tests used:
[1] = Substrate specificity of purified enzymes, PMS-DCIP spectrophotometric assay; assay type: biochemical; conditions: A′ corrected 1.5-fold (purity about 65%)
Procedure: The enzymatic activity of the AADHs herein can be determined by methods known in the art, such as by photometric analysis using a spectrophotometer. In accordance with the present invention, one unit of enzyme activity was defined as the amount of enzyme which catalyzed the reduction of 1 μmole of DCIP per minute. The extinction coefficient of DCIP at pH 8.0 was taken as 15 mM^−1. In a preferred standard assay for determining the enzyme activity of the AADHs herein, a first cuvette includes a standard reaction mixture (1.0 ml) containing 0.1 mM DCIP, 1 mM PMS, 2 to 125 mM substrate, 50 mM Tris-malate-NaOH buffer (pH 8.0), and 10 μl of the enzyme solution. A second cuvette, i.e., a reference cuvette, contains all the above components except the substrate. The reference cuvette is used to standardize the background absorbance resulting from a substrate-independent (endogenous) reaction. Preferably, a double beam spectrophotometer is used to determine the activity of the enzyme in the presence of a substrate with respect to a standard reaction mixture in the absence of the substrate.
Enzyme activities of each clone (cell free extract, soluble fraction and membrane fraction) were measured by photometric analysis. The cells of each clone were inoculated in 5 ml of MB medium in a test tube and cultivated at 30° C. for 24 hours. The resulting broth was transferred into 200 ml of fresh MB medium in 500 ml flask and the flask was shaken on the rotary flask shaker at 30° C. for 24 hours. The cells were collected by centrifugation at 6,000×g for 10 minutes and washed with 40 ml of cold buffer consisting of 50 mM Tris-HCl, pH 7.5, 5 mM MgCl2 and 0.5 mM phenylmethylsulfonyl fluoride and suspended with the same buffer to prepare cell suspension of 1 g wet cells per 5 ml. The cell suspension was subjected twice to a French press cell disruptor (1,500 kg/cm^2) and the resulting homogenate was centrifuged at 6,000×g for 10 minutes to remove cell debris. Thus obtained cell free extract (CFE) was centrifuged at 100,000×g for 60 minutes. The resulting supernatant and pellet were collected as the cytosol fraction and the membrane fraction, respectively and subjected to PMS-DCIP assay as follows. The enzyme reaction mixture (1.0 ml) contained 100 μM DCIP, 1 mM PMS, 50 mM Tris malate-NaOH buffer, pH 8.0, a substrate and the enzyme (10 μl). Substrate-dependent decreasing rate of absorbance of DCIP at 600 nm was measured at 25° C. by using a Kontron spectrophotometer UVIKON 810. […] In the A-group, there were three types, A, A′ and A″ each of which was distinguished from each other by their physical map of the DNA carried on each plasmid. B- or C-group each consisted of only one type of protein derived from one region of the chromosomal DNA.

[2] = Optimal pH, PMS-DCIP assay in buffers of various pH; assay type: biochemical
Procedure: The Enzymes A″ and B have a relatively wide pH range toward a lower pH, compared with the Enzymes A and A′.
The enzyme activity was assayed by the PMS-DCIP spectrophotometric assay using various pH buffers. The buffers were 50 mM Tris-malate-NaOH, pH 6.0, 6.5, 7.0, 7.5, 8.0 and 8.5; 50 mM glycine-NaOH, pH 9.0 and 9.5. The extinction coefficients of DCIP at pH 6.0, 6.5, 7.0, 7.5, 8.0, 8.5, 9.0 and 9.5 were taken as 10.8, 13.2, 14.5, 14.9, 15.0, 15.1, 15.1 and 15.1, respectively. […] The Enzymes A″ and B had relatively wide pH range toward lower pH, compared with the Enzymes A and A′.

[3] = Thermal stability, 5 minutes, residual activity by PMS-DCIP assay; assay type: physicochemical
Procedure: Table 4 indicates the results of thermal-stabilities of the enzymes. The enzyme (about 0.05 mg/ml) in 25 mM HEPES buffer, pH 7.5, containing 5% sucrose, 0.2 M NaCl, and 5 mM CaCl2 was incubated at temperature indicated in the table (4-60° C.) for 5 minutes, cooled in ice bath and assayed by PMS-DCIP spectrophotometric method. Remaining activity was expressed as relative activity against that obtained by 4° C. incubation.

[4] = Oxidation product of AADH clones by resting cell reaction followed by TLC analysis; assay type: cell-based, P. putida
From the text: Enzyme A gene was originally cloned as a cosmid clone of p24D4 which has about 25 kb insert in EcoRI site of pVK100. Then, it was further subcloned to use as an Enzyme A gene cassette. The 2.7 kb EcoRV fragment which includes ORF of Enzyme A gene with about 500 bp of non-coding regions at the both ends was excised from 3.4 kb NruI fragment, which was isolated from p24D4 in M13 mp18, and was ligated to HindIII site of pUC18 with HindIII linker ([…]). The resulting plasmid was designated pSSA202. Enzyme A gene cassette (2.7 kb HindIII fragment) was then inserted at HindIII site of pVK102 to produce pSSA102R. The plasmid pSSA102R was introduced into nalidixic acid resistant P. putida [ATCC 21812] by a conjugal mating method as described in Example 1-(1). The transconjugant of P. putida carrying pSSA102R was selected on MB agar medium containing 50 μg/ml nalidixic acid and 10 μg/ml tetracycline (MNT agar medium) and subjected to a mini-resting cell reaction. […] The reaction mixture was assayed with TLC and 2KGA was identified as the product, while no 2KGA was observed by the same resting cell reaction with the host, nalidixic acid resistant P. putida [ATCC 21812].

[5] = Products of enzyme reactions with purified enzymes, identified by TLC and/or HPLC; assay type: biochemical
Procedure: Products formed from a substrate in the reaction with Enzyme A, Enzyme A′, Enzyme A″ or Enzyme B were analyzed by thin layer chromatography (TLC) and/or high performance liquid chromatography (HPLC) with authentic compounds. […] Similarly to the reactivity for L-sorbosone, D-glucosone can be converted to 2KD by all of above mentioned AADHs. A group enzymes can produce 2KD from D-fructose whose possible direct product is D-glucosone. […]
Enzyme reactions with purified Enzyme A or Enzyme B and various substrates were performed as described in Example 11.

B1: Enzyme A′: recombinant AADH of G. oxydans DSM No. 4025, amino acid sequence SEQ ID NO 6, plasmid p1E2 (protein)
chain: MKTSSLLVASVAALASYSSFALAQVTPVTDELLANPPAGEWISYGQNQENYRHSPLTQITTENVGQLQLVWARGMQPGKVQVTPLIHDGVMYLANPGDVIQAIDAKTGDLIWEHRRQLPNIATLNSFGEPTRGMALYGTNVYFVSWDNHLVALDTATGQVTFDVDRGQGEDMVSNSSGPIVANGVIVAGSTCQYSPFGCFVSGHDSATGEELWRNYFIPRAGEEGDETWGNDYEARWMTGVWGQITYDPVGGLVHYGSSAVGPASETQRGTTGGTMYGTNTRFAVRPETGEIVWRHQTLPRDNWDQECTFEMMVANVDVQPAADMDGVRSINPNAATGERRVLTGVPCKTGTMWQFDAETGEFLWARDTSYENIIESIDENGIVTVDESKVLTELDTPYDVCPLLLGGRDWPSAALNPDTGIYFIPLNNTCMDIEAVDQEFSSLDVYNQSLTAKMAPGKELVGRIDAIDISTGRTLWTAEREASNYAPVLSTAGGVLFNGGTDRYFRALSQETGETLWQTRLATVASGQAVSYEIDGVQYIAIGGGGTTYGSFHNRPLAEPVDSTAIGNAMYVFALPQQ
modifications: Gluconobacter oxydans; SIGNAL (1)..(23)
Substrate specificity ([1]; 2 mM L-Sorbosone): 5.0 units/mg of purified protein
Substrate specificity ([1]; 50 mM D-Glucose): 0.0 units/mg of purified protein
Substrate specificity ([1]; 50 mM D-Mannitol): 1.3 units/mg of purified protein
Substrate specificity ([1]; 50 mM Isopropanol): 108.9 units/mg of purified protein
Substrate specificity ([1]; 50 mM n-Propanol): 180.7 units/mg of purified protein
Substrate specificity ([1]; 125 mM D-Fructose): 2.9 units/mg of purified protein
Substrate specificity ([1]; 125 mM D-Sorbitol): 7.8 units/mg of purified protein
Substrate specificity ([1]; 125 mM L-Sorbose): 1.6 units/mg of purified protein
Relative activity (optimal pH) ([2]; assay pH 6.0, pH 8.0 = 100): 2.1%
Relative activity (optimal pH) ([2]; assay pH 6.5, pH 8.0 = 100): 9.3%
Relative activity (optimal pH) ([2]; assay pH 7.0, pH 8.0 = 100): 22.5%
Relative activity (optimal pH) ([2]; assay pH 7.5, pH 8.0 = 100): 46.8%
Relative activity (optimal pH) ([2]; assay pH 8.0): 100.0%
Relative activity (optimal pH) ([2]; assay pH 8.5, pH 8.0 = 100): 142.7%
Relative activity (optimal pH) ([2]; assay pH 9.0, pH 8.0 = 100): 2.1%
Relative activity (optimal pH) ([2]; assay pH 9.5, pH 8.0 = 100): 1.8%
Relative activity (thermal stability) ([3]; 4° C. for 5 minutes (reference)): 100.0%
Relative activity (thermal stability) ([3]; 20° C. for 5 minutes, relative to 4° C. incubation): 100.8%
Relative activity (thermal stability) ([3]; 30° C. for 5 minutes, relative to 4° C. incubation): 103.6%
Relative activity (thermal stability) ([3]; 40° C. for 5 minutes, relative to 4° C. incubation): 78.9%
Relative activity (thermal stability) ([3]; 50° C. for 5 minutes, relative to 4° C. incubation): 0.6%
Relative activity (thermal stability) ([3]; 60° C. for 5 minutes, relative to 4° C. incubation): 0.0%
Oxidation product of D-sorbitol [4]: mainly D-glucose
Oxidation product of L-sorbose [4]: *1Oxidation product of L-sorbose by Enzymes A, A′, A″, and [A and B] was 2KGA.
Oxidation product of L-sorbosone [4]: *4Oxidation product of L-sorbosone by Enzymes A, A′, A″, B, and [A and B] was 2KGA.
Product ([5]; substrate D-Fructose): 2-keto-D-gluconic acid
Product ([5]; substrate D-Mannitol): D-mannose
Product ([5]; substrate D-Sorbitol): D-glucose with L-gulose
Product ([5]; substrate L-Sorbose): L-sorbosone with 2KGA
Product ([5]; substrate L-Sorbosone): 2KGA
